B1: LCOR (parent)
chain: YKVKERLGTLKNPPKKKMKLMSG

Variants of: B1
Assay: protein stability index of a GFP-peptide fusion (GPS, HEK-293T) (PSI 1-6); higher = more stable
Details: c terminus: native
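Note: lentivirally expressed fusions sorted by FACS into six bins by GFP to DsRed ratio, PSI derived from sequencing read proportions per bin multiplied by bin number.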

Protein stability index of substitutions, site by site:
K16: P 1.93; I 1.39; Q 2.17; V 1.87; E 2.83; L 2.34; M 1.49; R 2.55; T 1.78; C 1.15; S 1.46; H 1.49; D 2.35; G 2.57; Y 2.98; F 1.45; N 1.76; W 2.45
M18: W 1.36; R 2.2; T 1.36; A 2.49; Y 2.43; Q 2.23; H 2.03; P 2.03; V 2; D 3; L 1.81; F 1.98; N 2.06; E 2.24; G 2.59; S 1.52; C 1.82; I 2.02
K15: S 2.17; D 2.06; W 3.79; P 2.99; H 2.34; N 2.34; I 3.63; R 2.04; E 2.66; Q 1.84; L 1.58
P14: L 1.32; E 1.37; H 2.87; N 1.49; S 3.59; D 1.71; I 1.78; M 3.42; A 1.42; W 2.41; T 1.63; G 3.94; K 1.77; Y 3.03; C 2.14
K17: D 1.83; I 2.58; N 1.83; W 1.83; R 2.22; S 1.42; H 2.02; M 1.94; Q 2.96; A 2.41; V 1.68; L 1.34; G 1.43; F 2.02; T 1.76; E 2.63; P 2.59; Y 2.25
K19: N 2.96; D 2.64; A 3.4; P 2.26; E 2.5; W 2.52; H 2.51; T 2.38; G 1.34; Q 3.03; I 3.48; V 2.77; C 2.15
P13: C 2.03; D 1.93; H 2.49; E 2.94; V 1.98; S 2.09; G 1.5; A 2.68; I 2.27; R 2.2; Q 1.76; K 3.2; F 2.63; T 2.42; L 2.02; N 2.05
L20: H 3.95; A 3.14; K 3.8; C 1.8; G 3.74; F 2.55; M 1.55; E 3.99; N 2.43; I 2.9; S 3.02; V 2.81; Y 2.18; P 3.94; T 2.32; D 3.66; W 2.95; Q 3.83
M21: L 3.01; F 2.78; I 1.92; N 5.95; G 2.91; P 2.56; C 4.02; H 3.33
N12: K 2.25; I 1.09; H 2.7; A 2.54; P 2.33; M 1.26; S 1.72; Y 2.39; W 2.83; V 1.86; R 3.15; C 3.3; T 3.6; F 1.86; E 1.61; D 1.65; G 2.84; Q 2.6
L10: Y 3.47
K11: D 1.76; S 1.55; E 1.69; I 3.65; N 2.29; H 1.79; G 3.44; Q 1.44; Y 2.48; M 3.04; R 2.39; C 2.02; A 3.29
